Laboratory results reported in publication PMC6294517.

Target: T1, SSBP1 (single-stranded DNA-binding protein 1, mitochondrial) (UniProt Q04837 17-148)
T1 sequence: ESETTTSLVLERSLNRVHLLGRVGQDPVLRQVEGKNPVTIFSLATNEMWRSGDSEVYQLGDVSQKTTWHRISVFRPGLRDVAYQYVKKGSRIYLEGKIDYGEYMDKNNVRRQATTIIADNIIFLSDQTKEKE
Experiment: fluorescence anisotropy

B1: 5x 6mA fluorescent probe (PG491/PG493) (dsDNA)
DNA 1: TATTTAACCTAAATTTCTATAAGATTATTAGTATAAAAGGG
DNA 2: CCCTTTTATACTAATAATCTTATAGAAATTTAGGTTAAATA
modifications: N6-methyldeoxyadenosine at strand 1 positions 19, 24, 27, 30, 33
  binding result: binds
